Experimental findings from patent US20200317768A1 (published 2020) are described below.

Positions count from the first letter of the chain named.

In test [1] the target is T1, cynomolgus monkey FcγRIIIaS extracellular domain, C-terminal His-tag (cynomolgus monkey, UniProt Q8SPW2 21-206 at identity 1.00)).
T1 construct: also called cyno FcγRIIIaS; cynoFcγRIIIaS
T1 chain: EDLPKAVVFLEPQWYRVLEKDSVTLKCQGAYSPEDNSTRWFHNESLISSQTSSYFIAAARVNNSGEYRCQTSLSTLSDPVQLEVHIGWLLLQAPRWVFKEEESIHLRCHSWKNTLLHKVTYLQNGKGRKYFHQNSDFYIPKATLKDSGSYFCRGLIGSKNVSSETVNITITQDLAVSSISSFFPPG
The experiment in a line: SPR (Biacore), antibody captured, FcgR analyte. In general terms: In SPR one partner is held on a chip, and binding of the other changes the refractive index at the surface.

The target of test [2] is T2, human FcγRIIaR extracellular domain, C-terminal His-tag (human, UniProt P12318 34-217).
T2 construct: also called human FcγRIIa (type R); FcgRIIaR
T2 chain: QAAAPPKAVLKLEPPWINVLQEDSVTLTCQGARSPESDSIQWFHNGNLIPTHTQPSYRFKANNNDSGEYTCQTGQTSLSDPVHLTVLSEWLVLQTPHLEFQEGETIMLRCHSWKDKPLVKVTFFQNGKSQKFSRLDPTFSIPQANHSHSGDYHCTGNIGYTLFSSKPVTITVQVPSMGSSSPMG
The experiment in a line: SPR (Biacore), antibody captured, FcgR analyte.

Test [3] has as its target T3, human FcγRIIb extracellular domain, C-terminal His-tag (human, UniProt P31994 43-217).
T3 construct: also called human FcgRIIb; FcgRIIb
T3 sequence: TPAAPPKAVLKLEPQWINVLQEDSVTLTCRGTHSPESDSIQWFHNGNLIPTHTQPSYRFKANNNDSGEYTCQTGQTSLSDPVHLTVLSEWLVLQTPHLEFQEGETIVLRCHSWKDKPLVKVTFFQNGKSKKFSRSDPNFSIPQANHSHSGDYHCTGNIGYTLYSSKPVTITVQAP
Kind of test: SPR (Biacore), antibody captured, FcgR analyte.

Test [4] has as its target T4, cynomolgus monkey FcγRIIa2 extracellular domain, C-terminal His-tag (cynomolgus monkey).
T4 construct: also called cyno FcγRIIa2; cynoFcgRIIa2
T4 chain: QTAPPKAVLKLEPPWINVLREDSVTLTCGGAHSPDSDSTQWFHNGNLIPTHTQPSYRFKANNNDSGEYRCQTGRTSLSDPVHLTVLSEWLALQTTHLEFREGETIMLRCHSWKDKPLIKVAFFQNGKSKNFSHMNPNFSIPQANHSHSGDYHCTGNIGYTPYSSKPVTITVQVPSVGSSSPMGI
The experiment in a line: SPR (Biacore), antibody captured, FcgR analyte.

In test [5] the target is T5, cynomolgus monkey FcγRIIa3 extracellular domain, C-terminal His-tag (cynomolgus monkey).
T5 construct: also called cyno FcγRIIa3; cynoFcgRIIa3
T5 chain: T4 chain with K127I, N130K, H133P, Q142R
The experiment in a line: SPR (Biacore), antibody captured, FcgR analyte.

Test [6] deals with T6, cynomolgus monkey FcγRIIb extracellular domain, C-terminal His-tag (cynomolgus monkey).
T6 construct: also called cyno FcγRIIb; cynoFcγRIIb
T6 chain: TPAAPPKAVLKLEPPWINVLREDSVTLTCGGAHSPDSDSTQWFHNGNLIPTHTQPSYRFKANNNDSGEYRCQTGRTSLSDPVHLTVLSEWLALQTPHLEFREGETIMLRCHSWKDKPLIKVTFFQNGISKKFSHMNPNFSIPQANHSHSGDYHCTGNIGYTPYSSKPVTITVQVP
Kind of test: SPR (Biacore), antibody captured, FcgR analyte.

The target in test [7] is T7, human FcγRIIaH extracellular domain, C-terminal His-tag (human, UniProt P12318 34-217).
T7 construct: also called human FcγRIIa (type H); FcgRIIaH
T7 sequence: T2 chain with R134H
The experiment in a line: SPR (Biacore), antibody captured, FcgR analyte.

Test [8] addresses T8, cynomolgus monkey FcγRIIa1 extracellular domain, C-terminal His-tag (cynomolgus monkey).
T8 construct: also called cyno FcγRIIa1; cynoFcgRIIa1
T8 chain: T4 chain with T95P, A121T, K127I, S128A, N130K, N135D, Q142R
The experiment in a line: SPR (Biacore), antibody captured, FcgR analyte.

Test [9] has as its target T2, human FcγRIIaR extracellular domain, …. Kind of test: SPR (Biacore); KD of SG1 / KD of variant.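 Also: relative to parent M103205H795-SG1 carrying the SG1 human heavy chain constant region.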

B1: M103205H795-MY052/M103202L889-SK1 (antibody, human IgG1, kappa)
heavy: QVTLKESGPVLVKPTETLTLTCTVSGIDLSHDDISWVRQAPGKGLEWVGIISYAGSTYYASWAKGRLTISKDTSKNQVVLTMTNMDPVDTATYYCARGVPAYSHGGDLWGQGTLVTVSSASTKGPSVFPLAPSSKSTSGGTAALGCLVKDYFPEPVTVSWNSGALTSGVHTFPAVLQSSGLYSLSSVVTVPSSSLGTQTYICNVNHKPSNTKVDKKVEPKSCDKTHTCPPCPAPELLNGPSVFLFPPKPKDTLMISRTPEVTCVVVDVSEEDPEVKFNWYVDGVEVHNAKTKPREEQYNSTYRVVSVLTVLHQDWLNGKEYKCKVSNKALPAPIEKTISKAKGQPREPQVYTLPPSREEMTKNQVSLTCLVKGFYPSDIAVEWESNGQPENNYKTTPMVLDSDGSFFLYSKLTVDKSRWQQGNVFSCSVMHEALHNHYTQKSLSLSP
light: DIVMTQSPATLSLSPGERATLSCTSSQSVYHANWLSWFQQKPGQPPKLLIYWASTLAYGVPSRFSGSGSGTDFTLTISSLQPEDAATYYCAGGYGGGRYAFGQGTKVEIKRTVAAPSVFIFPPSDEQLKSGTASVVCLLNNFYPREAKVQWKVDNALQSGNSQESVTEQDSKDSTYSLSSTLTLSKADYEKHKVYACEVTHQGLSSPVTKSFNRGEC
notes: Substitutions introduced into M103205H795-SG1; expressed with M103202L889-SK1 as light chain
As usually defined, the Kd is the concentration at which binding is half-saturated. Take B1: the Kd was determined as 1.5 µM in [1]; 14 µM in test [2]; 0.72 µM in test [3]; 1.5 µM in [4]; 3.9 µM in [5]; 0.46 µM in test [6]. Also, the Kd in [7] turned out to be 0.63 µM; in test [8], 1.4 µM. The “KD fold (SG1 = 1)” value in test [9] amounted to 0.5 fold.

B2: M103205H795-MY117/M103202L889-SK1 (antibody, human IgG1, kappa)
heavy: B1 heavy with L236W, S269A
light: B1 light
notes: as for B1
As to B2, the Kd in test [1] came to 1 µM; in test [2], 10 µM; in test [3] it was 0.6 µM; in test [4], 3.2 µM; in test [5], 9.9 µM; in test [6], 1 µM. Further, the equilibrium dissociation constant (Kd) came out at 2.2 µM in [7] and 2.6 µM in [8]. Moreover, in test [9], the “KD fold (SG1 = 1)” value was 1.1 fold.

B3: M103205H795-MY115/M103202L889-SK1 (antibody, human IgG1, kappa)
heavy: B1 heavy with S269A
light: B1 light
notes: as for B1
As for B3, the Kd in test [1] turned out to be 0.85 µM; in [2], 0.64 µM; in test [3], 0.82 µM; in test [4], 2.7 µM; in test [5], 76 µM; in test [6], 0.78 µM. In addition, the Kd in [7] amounted to 0.96 µM; in test [8], 2.3 µM. The “KD fold (SG1 = 1)” value in test [9] amounted to 1.7 fold.

B4: M103205H795-MY197/M103202L889-SK1 (antibody, human IgG1, kappa)
heavy: B1 heavy with E270D, A332K
light: B1 light
notes: as for B1
Take B4: the Kd in test [1] worked out at 2.1 µM; in test [2], 0.71 µM; in test [3] it was 0.89 µM; in test [4], 0.56 µM; in test [5] it was 14 µM; in test [6], 0.17 µM. Besides, the dissociation constant (Kd) is 0.36 µM in test [7] and 0.58 µM in test [8]. In addition, the “KD fold (SG1 = 1)” value in [9] came out at 1.5 fold.

B5: M103205H795-MY105/M103202L889-SK1 (antibody, human IgG1, kappa)
heavy: B1 heavy with S241V
light: B1 light
notes: as for B1
On to B5, for which the equilibrium dissociation constant (Kd) in test [1] is 13 µM; in test [2], 1.4 µM; in test [3], 0.57 µM; in test [4] it was 0.9 µM; in test [5], 13 µM; in test [6], 0.39 µM. The Kd in test [7] was 15 µM; in [8], 12 µM. The “KD fold (SG1 = 1)” value in test [9] was 0.8 fold.

B6: M103205H795-MY141/M103202L889-SK1 (antibody, human IgG1, kappa)
heavy: B1 heavy with S269A, E270H
light: B1 light
notes: as for B1
As to B6, the Kd in test [1] was determined as 47 µM; in test [2], 1.6 µM; in [3] it was 1.1 µM; in test [4] it was 2.8 µM; in [5], 20 µM; in [6], 1.8 µM. Moreover, the Kd in test [7] worked out at 12 µM; in [8] it was 22 µM. For the same molecule, the “KD fold (SG1 = 1)” value in test [9] was 0.7 fold.

B7: M103205H795-MY147/M103202L889-SK1 (antibody, human IgG1, kappa)
heavy: B1 heavy with L237W
light: B1 light
notes: as for B1
In the case of B7, the dissociation constant Kd in test [1] came out at 5.5 µM; in test [2] it was 1.1 µM; in test [3] it was 0.85 µM; in [4], 2.2 µM; in [5] it was 6.6 µM; in test [6] it was 0.96 µM. Moreover, the Kd in test [7] came out at 1.2 µM; in test [8] it was 2.2 µM. In addition, the “KD fold (SG1 = 1)” value in test [9] was 1 fold.

B8: M103205H795-MY101/M103202L889-SK1 (antibody, human IgG1, kappa)
heavy: B1 heavy with A332K
light: B1 light
notes: also called MS1032LO06-MY101
Consider B8, for which the Kd came to 32 µM in test [1]; 0.87 µM in test [2]; 0.49 µM in test [3]; 1.2 µM in test [4]; 36 µM in test [5]; 0.55 µM in test [6]. The dissociation constant Kd in test [7] came to 0.48 µM; in test [8], 1.1 µM. For the same molecule, the “KD fold (SG1 = 1)” value in test [9] was determined as 1.3 fold.
